Assay results: the supplement of paper PMC10567573

B1: MYBL2 (parent)
chain: IAKHLKGRLGKQCRERWHNHLNPE

Variants of: B1
Experiment: protein stability index of a GFP-peptide fusion (GPS, HEK-293T) (PSI 1-6); higher = more stable
Conditions: c terminus: a fixed tail appended
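Further: lentivirally expressed fusions sorted by FACS into six bins by GFP to DsRed ratio, PSI derived from sequencing read proportions per bin multiplied by bin number.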

Variant | protein stability index
IAKHQKGRLGKQCRERWHNHLNPE [L5Q] | 1.87
IAKHPKGRLGKQCRERWHNHLNPE [L5P] | 2.07
IAKHRKGRLGKQCRERWHNHLNPE [L5R] | 2.7
IAKHVKGRLGKQCRERWHNHLNPE [L5V] | 2.18
IAKHSKGRLGKQCRERWHNHLNPE [L5S] | 2.29
IAKHMKGRLGKQCRERWHNHLNPE [L5M] | 1.72
IAKHKKGRLGKQCRERWHNHLNPE [L5K] | 2.49
IAKHNKGRLGKQCRERWHNHLNPE [L5N] | 2.38
IAKHTKGRLGKQCRERWHNHLNPE [L5T] | 2.35
IAKHYKGRLGKQCRERWHNHLNPE [L5Y] | 1.86
IAKHWKGRLGKQCRERWHNHLNPE [L5W] | 1.84
IAKHLHGRLGKQCRERWHNHLNPE [K6H] | 1.91
IAKHLQGRLGKQCRERWHNHLNPE [K6Q] | 1.56
IAKHLLGRLGKQCRERWHNHLNPE [K6L] | 4.25
IAKHLCGRLGKQCRERWHNHLNPE [K6C] | 2.59
IAKHLVGRLGKQCRERWHNHLNPE [K6V] | 2.45
IAKHLFGRLGKQCRERWHNHLNPE [K6F] | 2.94
IAKHLTGRLGKQCRERWHNHLNPE [K6T] | 2.21
IAKHLDGRLGKQCRERWHNHLNPE [K6D] | 2.46
IAKHLEGRLGKQCRERWHNHLNPE [K6E] | 1.55
IAKHLGGRLGKQCRERWHNHLNPE [K6G] | 1.67
IAKHLPGRLGKQCRERWHNHLNPE [K6P] | 2.03
IAKHLYGRLGKQCRERWHNHLNPE [K6Y] | 1.77
IAKHLMGRLGKQCRERWHNHLNPE [K6M] | 1.97

Variant | protein stability index
IAKHLAGRLGKQCRERWHNHLNPE [K6A] | 1.7
IAKHLWGRLGKQCRERWHNHLNPE [K6W] | 1.27
IAKHLSGRLGKQCRERWHNHLNPE [K6S] | 1.81
IAKHLNGRLGKQCRERWHNHLNPE [K6N] | 2.21
IAKHLRGRLGKQCRERWHNHLNPE [K6R] | 1.67
IAKHLKHRLGKQCRERWHNHLNPE [G7H] | 3.17
IAKHLKWRLGKQCRERWHNHLNPE [G7W] | 2.74
IAKHLKTRLGKQCRERWHNHLNPE [G7T] | 2.25
IAKHLKVRLGKQCRERWHNHLNPE [G7V] | 2.45
IAKHLKIRLGKQCRERWHNHLNPE [G7I] | 2.31
IAKHLKMRLGKQCRERWHNHLNPE [G7M] | 1.77
IAKHLKNRLGKQCRERWHNHLNPE [G7N] | 1.82
IAKHLKARLGKQCRERWHNHLNPE [G7A] | 2.94
IAKHLKFRLGKQCRERWHNHLNPE [G7F] | 2.25
IAKHLKRRLGKQCRERWHNHLNPE [G7R] | 2.2
IAKHLKQRLGKQCRERWHNHLNPE [G7Q] | 1.65
IAKHLKYRLGKQCRERWHNHLNPE [G7Y] | 2.14
IAKHLKKRLGKQCRERWHNHLNPE [G7K] | 1.77
IAKHLKLRLGKQCRERWHNHLNPE [G7L] | 2.71
IAKHLKERLGKQCRERWHNHLNPE [G7E] | 1.88
IAKHLKSRLGKQCRERWHNHLNPE [G7S] | 2.39
IAKHLKCRLGKQCRERWHNHLNPE [G7C] | 1.6
IAKHLKPRLGKQCRERWHNHLNPE [G7P] | 2.14
IAKHLKDRLGKQCRERWHNHLNPE [G7D] | 2.61

Variant | protein stability index
IAKHLKGREGKQCRERWHNHLNPE [L9E] | 2.73
IAKHLKGRAGKQCRERWHNHLNPE [L9A] | 1.76
IAKHLKGRIGKQCRERWHNHLNPE [L9I] | 1.43
IAKHLKGRHGKQCRERWHNHLNPE [L9H] | 2
IAKHLKGRVGKQCRERWHNHLNPE [L9V] | 2.18
IAKHLKGRFGKQCRERWHNHLNPE [L9F] | 1.7
IAKHLKGRRGKQCRERWHNHLNPE [L9R] | 2.72
IAKHLKGRQGKQCRERWHNHLNPE [L9Q] | 2.06
IAKHLKGRCGKQCRERWHNHLNPE [L9C] | 2.08
IAKHLKGRMGKQCRERWHNHLNPE [L9M] | 2.45
IAKHLKGRNGKQCRERWHNHLNPE [L9N] | 2.31
IAKHLKGRWGKQCRERWHNHLNPE [L9W] | 1.67
IAKHLKGRTGKQCRERWHNHLNPE [L9T] | 1.99
IAKHLKGRYGKQCRERWHNHLNPE [L9Y] | 2.24
IAKHLKGRKGKQCRERWHNHLNPE [L9K] | 2.5
IAKHLKGRSGKQCRERWHNHLNPE [L9S] | 2.55
IAKHLKGRDGKQCRERWHNHLNPE [L9D] | 3.01
IAKHLKGRPGKQCRERWHNHLNPE [L9P] | 2.28
IAKHLKGRGGKQCRERWHNHLNPE [L9G] | 2.45
IAKHLKGSLGKQCRERWHNHLNPE [R8S] | 1.8
IAKHLKGILGKQCRERWHNHLNPE [R8I] | 1.53
IAKHLKGVLGKQCRERWHNHLNPE [R8V] | 1.6
IAKHLKGMLGKQCRERWHNHLNPE [R8M] | 1.74
IAKHLKGCLGKQCRERWHNHLNPE [R8C] | 2.23

Variant | protein stability index
IAKHLKGNLGKQCRERWHNHLNPE [R8N] | 1.61
IAKHLKGYLGKQCRERWHNHLNPE [R8Y] | 1.9
IAKHLKGWLGKQCRERWHNHLNPE [R8W] | 2.73
IAKHLKGDLGKQCRERWHNHLNPE [R8D] | 2.41
IAKHLKGTLGKQCRERWHNHLNPE [R8T] | 1.63
IAKHLKGALGKQCRERWHNHLNPE [R8A] | 1.97
IAKHLKGQLGKQCRERWHNHLNPE [R8Q] | 1.76
IAKHLKGPLGKQCRERWHNHLNPE [R8P] | 2.65
IAKHLKGKLGKQCRERWHNHLNPE [R8K] | 2.11
IAKHLKGGLGKQCRERWHNHLNPE [R8G] | 1.81
IAKHLKGHLGKQCRERWHNHLNPE [R8H] | 1.91
IAKHLKGELGKQCRERWHNHLNPE [R8E] | 2.14
IAKHLKGRLIKQCRERWHNHLNPE [G10I] | 2.44
IAKHLKGRLNKQCRERWHNHLNPE [G10N] | 2.52
IAKHLKGRLFKQCRERWHNHLNPE [G10F] | 3.24
IAKHLKGRLHKQCRERWHNHLNPE [G10H] | 1.35
IAKHLKGRLCKQCRERWHNHLNPE [G10C] | 1.74
IAKHLKGRLKKQCRERWHNHLNPE [G10K] | 1.61
IAKHLKGRLEKQCRERWHNHLNPE [G10E] | 1.48
IAKHLKGRLDKQCRERWHNHLNPE [G10D] | 1.83
IAKHLKGRLAKQCRERWHNHLNPE [G10A] | 1.92
IAKHLKGRLLKQCRERWHNHLNPE [G10L] | 1.94
